Results reported in patent US20140112930A1 (published 2014).

Assays:
Biotin-hBA2 = molecular target: T1, Biotin-hBA2 (human, biotinylated (sites not given)); assay: blocking ELISA, biotin-hBA2 to hTie-2; NB = no blocking observed at 5 nM concentration
T1 construct: hBA2 consists of two dimers; also called biotinylated hBA2; human bow-Ang2
Experimental: The plate was then blocked with PBS (Irvine Scientific, Santa Ana, Calif.) containing 0.5% BSA (Sigma-Aldrich Corp., St. Louis, Mo.) for one hour at room temperature. […] Human, mouse or monkey Ang-2FD protein conjugated to human IgG (Ang-2FD-hFc) were added to final concentrations of 2 nM, 8 nM, or 2 nM respectively and incubated for one hour at room temperature. The antibody/Ang-2FD-Fc mixture was then added to the plate containing hTie-2-mFc and incubated for one hour at room temperature. Detection of Ang-2FD-hFc bound to hTie-2-mFc protein was determined with Horse-Radish Peroxidase (HRP) conjugated to a-human IgG antibody (Jackson Immuno Research Lab, West Grove, Pa.) and developed by standard colorimetric response using tetramethylbenzidine (TMB) substrate (BD Biosciences, San Jose, Calif.). Absorbance was read at OD₄₅₀ for 0.1 sec.
For this experiment, human Tie-2 conjugated to a histidine tag (hTie-2-His; SEQ ID NO:526) was used in a similar fashion to the hTie-2-mFc described above. Antibody concentrations from 5 nM were serially diluted three-fold. […] An average IC₅₀ value for each antibody was calculated based on two separate experiments.

Human Ang-2FD-hFc = molecular target: T2, Human Ang-2FD-hFc (human); assay: blocking ELISA, 16.67 nM antibody, Ang-2FD-hFc to coated hTie-2-mFc
T2 construct: also called dimeric human Ang-2FD; human Ang-2FD protein conjugated to human IgG
T2 sequence (chain, as listed by the source limits assumed): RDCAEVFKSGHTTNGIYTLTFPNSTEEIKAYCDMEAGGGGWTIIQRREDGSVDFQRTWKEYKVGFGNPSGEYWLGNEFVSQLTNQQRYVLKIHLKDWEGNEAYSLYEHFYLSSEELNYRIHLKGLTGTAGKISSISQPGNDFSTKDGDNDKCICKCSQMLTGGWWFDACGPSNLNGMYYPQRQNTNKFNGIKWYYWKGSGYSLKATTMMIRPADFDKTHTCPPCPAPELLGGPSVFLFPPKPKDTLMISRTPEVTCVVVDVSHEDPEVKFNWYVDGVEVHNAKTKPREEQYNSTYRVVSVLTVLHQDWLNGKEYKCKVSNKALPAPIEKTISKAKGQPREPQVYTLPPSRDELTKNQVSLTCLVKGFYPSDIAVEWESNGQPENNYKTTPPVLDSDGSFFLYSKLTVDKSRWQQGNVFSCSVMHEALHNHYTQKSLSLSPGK

Mouse Ang-2FD-hFc = molecular target: T3, Mouse Ang-2FD-hFc (mouse (Mus musculus)); assay: as above
T3 construct: also called dimeric mouse Ang-2FD
T3 sequence (chain, as listed by the source limits assumed): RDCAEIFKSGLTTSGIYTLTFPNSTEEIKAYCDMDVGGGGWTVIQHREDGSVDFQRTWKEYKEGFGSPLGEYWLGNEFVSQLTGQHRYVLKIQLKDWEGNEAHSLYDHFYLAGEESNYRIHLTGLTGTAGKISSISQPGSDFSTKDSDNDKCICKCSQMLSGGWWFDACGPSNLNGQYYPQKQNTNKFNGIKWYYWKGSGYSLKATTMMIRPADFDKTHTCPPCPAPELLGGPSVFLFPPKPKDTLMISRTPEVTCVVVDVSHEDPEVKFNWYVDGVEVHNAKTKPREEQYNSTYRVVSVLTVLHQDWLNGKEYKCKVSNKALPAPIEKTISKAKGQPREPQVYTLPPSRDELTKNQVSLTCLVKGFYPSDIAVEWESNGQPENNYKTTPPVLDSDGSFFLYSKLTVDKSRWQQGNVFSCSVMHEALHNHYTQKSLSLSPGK

T1 sequence (chain, as listed by the source limits assumed): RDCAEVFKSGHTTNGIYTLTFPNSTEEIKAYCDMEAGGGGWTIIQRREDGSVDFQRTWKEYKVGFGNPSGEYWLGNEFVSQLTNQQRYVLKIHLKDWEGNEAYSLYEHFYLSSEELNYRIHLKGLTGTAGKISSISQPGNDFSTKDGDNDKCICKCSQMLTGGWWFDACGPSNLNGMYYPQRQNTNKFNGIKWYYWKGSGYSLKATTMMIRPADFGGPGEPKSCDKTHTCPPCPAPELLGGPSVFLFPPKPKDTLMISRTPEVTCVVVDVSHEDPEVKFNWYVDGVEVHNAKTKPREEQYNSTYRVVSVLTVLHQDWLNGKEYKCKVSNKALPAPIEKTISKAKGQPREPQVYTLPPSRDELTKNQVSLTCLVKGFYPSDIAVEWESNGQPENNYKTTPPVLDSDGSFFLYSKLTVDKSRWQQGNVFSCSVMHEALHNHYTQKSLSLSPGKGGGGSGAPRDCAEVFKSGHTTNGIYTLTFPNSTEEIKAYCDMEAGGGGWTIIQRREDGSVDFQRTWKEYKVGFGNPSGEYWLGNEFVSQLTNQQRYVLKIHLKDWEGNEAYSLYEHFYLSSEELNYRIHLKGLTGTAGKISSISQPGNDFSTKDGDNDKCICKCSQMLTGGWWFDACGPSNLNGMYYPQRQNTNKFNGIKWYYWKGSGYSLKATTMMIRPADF

B1: H1H693P (antibody, human IgG1, V domains shown)
VH: EVQLVESGGGLVQPGESLRLSCAASGFTFSSYAMSWVRQGPGKGLEWVSSISGSGGTTYYADSVEGRFTISRDNSKNTLYLHMNSLRAEDTAVYYCAKDFLDYSTYLAFDLWGQGTMVTVSS
VL: DIQMTQSPSSVSASVGDRVTITCRASQGISSWLAWYQQKPGKAPKLLIYAASSLQSGVPSRFSGSGSGTDFTLTISSLQPEDFATYYCQQANSFPRTFGQGTKVEIK
notes: Human IgG1
IC50 (Biotin-hBA2): > 5 nM
Percent Blocking of Ang-2FD Binding to Tie-2 (Human Ang-2FD-hFc): 73.9%
Percent Blocking of Ang-2FD Binding to Tie-2 (Mouse Ang-2FD-hFc): 63.6%
